T1: biotinylated mouse Robo3 FN1–3 (Avi-tagged) (mouse, UniProt Q9Z2I4 558-869, biotin on the Avi-tag (BirA))
T1 chain: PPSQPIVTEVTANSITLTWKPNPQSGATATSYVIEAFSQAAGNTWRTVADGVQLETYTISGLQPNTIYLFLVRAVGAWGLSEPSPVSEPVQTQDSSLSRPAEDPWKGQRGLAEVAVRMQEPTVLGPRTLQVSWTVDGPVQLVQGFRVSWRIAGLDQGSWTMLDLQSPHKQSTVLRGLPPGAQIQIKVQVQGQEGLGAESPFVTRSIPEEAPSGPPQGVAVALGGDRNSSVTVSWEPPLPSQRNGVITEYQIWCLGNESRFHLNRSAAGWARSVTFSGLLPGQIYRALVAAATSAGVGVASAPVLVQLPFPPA


Biological target: T1, biotinylated mouse Robo3 FN1–3 …
Assay: SPR

| Binder | Kd [µM] |
| --- | --- |
| mouse NELL2 EGF1–6 L498A/F500A (domain or fragment) not shown | ~400 |
| mouse NELL2 EGF1–6 R448A/Y450A (domain or fragment) not shown | 87 |
| mouse NELL2 EGF1–6, wild type (domain or fragment) not shown | 0.71 |

— paper PMC7083938 (2020)
